Data taken from paper PMC11079029, “Intramolecular autoinhibition regulates the selectivity of PRPF40A tandem WW domains for proline-rich motifs” (Nature Communications, 2024).

B1: GB1-SF1 Pro A (residues 410-468) (domain or fragment, UniProt Q15637 410-468, looked up)
chain: GHPMQHNPNGPPPPWMQPPPPPMNQGPHPPGHHGPPPMDQYLGSTPVGSGVYRLHQGKG
notes: splicing factor 1 (SF1), residues 410-468 of the proline-rich C-terminal region; His6-GB1-TEV site cassette of the pET24 vector, not cleaved; source: E. coli BL21(DE3), purified (Ni-NTA, SEC); not shown: GB1, N-terminal, kept
B2: GB1-SF1 Pro B (residues 468-539) (domain or fragment, UniProt Q15637 468-539, looked up)
chain: GMMPPPPMGMMPPPPPPPSGQPPPPPSGPLPPWQQQQQQPPPPPPPSSSMASSTPLPWQQNTTTTTTSAGTG
notes: splicing factor 1 (SF1), residues 468-539 of the proline-rich C-terminal region; His6-GB1-TEV site cassette of the pET24 vector, not cleaved; source: E. coli BL21(DE3), purified (Ni-NTA, SEC); not shown: GB1, N-terminal, kept
B3: GB1-SF1 Pro C (residues 539-594) (domain or fragment, UniProt Q15637 539-594, looked up)
chain: GSIPPWQQQQAAAAASPGAPQMQGNPTMVPLPPGVQPPLPPGAPPPPPPPPPGSAG
notes: splicing factor 1 (SF1), residues 539-594 of the proline-rich C-terminal region (holds the WWbs motif 575-590); His6-GB1-TEV site cassette of the pET24 vector, not cleaved; source: E. coli BL21(DE3), purified (Ni-NTA, SEC); not shown: GB1, N-terminal, kept
B4: GB1-SF1 Pro D (residues 594-639) (domain or fragment, UniProt Q15637 594-639, looked up)
chain: GMMYAPPPPPPPPMDPSNFVTMMGMGVAGMPPFGMPPAPPPPPPQN
notes: splicing factor 1 (SF1), residues 594-639 of the proline-rich C-terminal region; His6-GB1-TEV site cassette of the pET24 vector, not cleaved; source: E. coli BL21(DE3), purified (Ni-NTA, SEC); not shown: GB1, N-terminal, kept
B5: GB1-SF1 Pro ABCD (residues 410-639) (domain or fragment, UniProt Q15637 410-639, looked up)
chain: GHPMQHNPNGPPPPWMQPPPPPMNQGPHPPGHHGPPPMDQYLGSTPVGSGVYRLHQGKGMMPPPPMGMMPPPPPPPSGQPPPPPSGPLPPWQQQQQQPPPPPPPSSSMASSTPLPWQQNTTTTTTSAGTGSIPPWQQQQAAAAASPGAPQMQGNPTMVPLPPGVQPPLPPGAPPPPPPPPPGSAGMMYAPPPPPPPPMDPSNFVTMMGMGVAGMPPFGMPPAPPPPPPQN
notes: splicing factor 1 (SF1), residues 410-639, the complete proline-rich C-terminal region; His6-GB1-TEV site cassette of the pET24 vector, not cleaved; source: E. coli BL21(DE3), purified (Ni-NTA, SEC); not shown: GB1, N-terminal, kept
B6: GB1-SF1 Pro BCD (residues 468-639) (domain or fragment, UniProt Q15637 468-639, looked up)
chain: GMMPPPPMGMMPPPPPPPSGQPPPPPSGPLPPWQQQQQQPPPPPPPSSSMASSTPLPWQQNTTTTTTSAGTGSIPPWQQQQAAAAASPGAPQMQGNPTMVPLPPGVQPPLPPGAPPPPPPPPPGSAGMMYAPPPPPPPPMDPSNFVTMMGMGVAGMPPFGMPPAPPPPPPQN
notes: splicing factor 1 (SF1), residues 468-639; His6-GB1-TEV site cassette of the pET24 vector, not cleaved; source: E. coli BL21(DE3), purified (Ni-NTA, SEC); not shown: GB1, N-terminal, kept
B7: GB1-SF1 Pro CD (residues 539-639) (domain or fragment, UniProt Q15637 539-639, looked up)
chain: GSIPPWQQQQAAAAASPGAPQMQGNPTMVPLPPGVQPPLPPGAPPPPPPPPPGSAGMMYAPPPPPPPPMDPSNFVTMMGMGVAGMPPFGMPPAPPPPPPQN
notes: splicing factor 1 (SF1), residues 539-639; His6-GB1-TEV site cassette of the pET24 vector, not cleaved; source: E. coli BL21(DE3), purified (Ni-NTA, SEC); not shown: GB1, N-terminal, kept
B8: GB1-SF1 Pro BC (residues 468-594) (domain or fragment, UniProt Q15637 468-594, looked up)
chain: GMMPPPPMGMMPPPPPPPSGQPPPPPSGPLPPWQQQQQQPPPPPPPSSSMASSTPLPWQQNTTTTTTSAGTGSIPPWQQQQAAAAASPGAPQMQGNPTMVPLPPGVQPPLPPGAPPPPPPPPPGSAG
notes: splicing factor 1 (SF1), residues 468-594; His6-GB1-TEV site cassette of the pET24 vector, not cleaved; also called SF1 BC; source: E. coli BL21(DE3), purified (Ni-NTA, SEC); not shown: GB1, N-terminal, kept
B9: GB1-SF3A1 Middle Pro (residues 364-413) (domain or fragment, UniProt Q15459 364-413, looked up)
chain: EGQKVPPPPETPMPPPLPPTPDQVIVRKDYDPKASKPLPPAPAPDEYLVS
notes: SF3A1 (U2 snRNP component), proline-rich region, residues 364-413; His6-GB1-TEV site cassette of the pET24 vector, not cleaved; source: E. coli BL21(DE3), purified (Ni-NTA, SEC); not shown: GB1, N-terminal, kept
B10: GB1-SF3A1 C-ter Pro (residues 552-683) (domain or fragment, UniProt Q15459 552-683, looked up)
chain: EIPQQPPPPSSATNIPSSAPPITSVPRPPTMPPPVRTTVVSAVPVMPRPPMASVVRLPPGSVIAPMPPIIHAPRINVVPMPPSAPPIMAPRPPPMIVPTAFVPAPPVAPVPAPAPMPPVHPPPPMEDEPTSK
notes: His6-GB1-TEV site cassette of the pET24 vector, not cleaved; source: E. coli BL21(DE3), purified (Ni-NTA, SEC); not shown: GB1, N-terminal, kept

Target: T1, PRPF40A WW12 (tandem WW domains, residues 141-236) (human, UniProt O75400 141-236)
T1 construct: A few vector residues probably remain at the N-terminus after TEV cleavage (pETM11, NcoI site); 15N-labelled in the NMR experiments; also called PRPF40A WW tandem; WW12 wt; source: E. coli BL21(DE3), purified (Ni-NTA, TEV digestion, reverse Ni-NTA, SEC); not shown: His6, N-terminal, cleaved
Experiment: ITC; GB1-peptide or GB1-SF1 construct in the cell, PRPF40A WW12 in the syringe (as shown in Supplementary Figures 7 and 16A); 25 °C, 20 mM sodium phosphate pH 6.5, 100 mM NaCl; one-site binding model; at least duplicates; affinities apparent
Conditions: both partners purified

T1 sequence (O75400 141-236): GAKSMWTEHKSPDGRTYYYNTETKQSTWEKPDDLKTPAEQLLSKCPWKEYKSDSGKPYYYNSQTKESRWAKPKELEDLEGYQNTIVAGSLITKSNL

Binder | Kd [µM]
PPPPPPPPPPPPPPPPPPPPPPPPP [GB1-polyproline peptide P25] | 10.8 ± 1.8
PPPPPPPPPPPPPPPPPPPPPPPPPPPPP [GB1-polyproline peptide P29] | 9.15 ± 1.85
TMVPLPPGVQPPLPPG [GB1-SF1 16-mer peptide 565-580] | 30.4 ± 6.7
PPPPPPPPPPPPP [GB1-polyproline peptide P13] | 8.54 ± 1.46
B1 | 25.1 ± 6.5
B2 | 20.6 ± 4.9
B3 | 2.02 ± 0.09
B4 | 10.1 ± 4.2
PPPPPPPPPPPPPPPP [GB1-polyproline peptide P16] | 3.35 ± 0.27
PPPPPPPPPPPPPPPPPPP [GB1-polyproline peptide P19] | 6.76 ± 0.96
PPPPPPPPPPPPPPPPPPPPPP [GB1-polyproline peptide P22] | 9.29 ± 0.88

Target: T1, PRPF40A WW12 (tandem WW domains, …)
Experiment: ITC; PRPF40A construct (WW12, N-ext-WW12 or its mutant) in the cell, GB1-SF1 or GB1-SF3A1 construct in the syringe (as shown in Supplementary Figures 16 and 21); 25 °C, 20 mM sodium phosphate pH 6.5, 100 mM NaCl; one-site binding model; at least duplicates; affinities apparent
Conditions: both partners purified

Binder | stoichiometry N [sites] | Kd [µM]
B5 | 0.28 ± 0.05 | 
B6 | 0.28 ± 0.02 | 
B7 | 0.39 ± 0.02 | 
B8 | 0.53 ± 0.05 | 
B9 | 0.56 ± 0.14 | 8.86 ± 1.38
B10 | 0.27 ± 0.07 | 
